Data reported in article PMC8694188, “EPSP Synthase-Depleted Cells Are Aromatic Amino Acid Auxotrophs in Mycobacterium smegmatis” (Microbiology Spectrum, 2021).
Changes are numbered by the printed parent chain. Numbers in names are those of the source.

B1: MsEPSPS (Mycolicibacterium smegmatis MC2 155) (protein)
chain: MSARADEEQKPHWAAPSTTAPVDATVTVPGSKSLTNRALILAALATSQGTSTISGALRSRDTDLMIEAIRTLGVTVDISAADPTELTVHGSIEPATDATVDCGLAGTVLRFVPPVAALSRSSVTFDGDEQARSRPIAPLLDGLRRLGVRLDGDGLPFTVRGTGTVSGGTVEIDASGSSQFVSGLLLSGAGFENGLTIVHTGVSVPSAPHVAMTVAMLRDAGVEVDDSVANRWQVNPGPVAARSWNIEPDLSNSTPFLAAALVTGGTVRIAGWPTVSIQPADTILELLATVGGSVREADGHLEVTGAHEYGGFEADLHDVGELAPTVAALAALAKEGSTSQLRGIAHLRGHETDRLAALTTEINGLGGDCRETDDGLLITARPLHGGTWRSYADHRMATAGAIVGLRVPGVVVENIETTAKTLPDFPSMWVDMLAGEPGRNQQR
notes: full-length WT aroA in pET-23a(+) (NdeI/HindIII), expressed in E. coli; no tag evident (native stop codon in reverse primer, ion-exchange and hydrophobic purification); apparent mass 46 kDa on SDS-PAGE
B2: MsEPSPS (Mycolicibacterium smegmatis MC2 155; E321N) (protein)
chain: B1 chain with E321N
notes: as for B1
B3: MsEPSPS (Mycolicibacterium smegmatis MC2 155; R134A) (protein)
chain: B1 chain with R134A
notes: as for B1
B4: MsEPSPS (Mycolicibacterium smegmatis MC2 155; D61W) (protein)
chain: B1 chain with D61W
notes: as for B1

substrate: C=C(OP(=O)(O)O)C(=O)O; test: continuous coupled spectrophotometric Pi release assay (MtPNP / MESG); assay type: biochemical, Mycolicibacterium smegmatis; conditions: apparent constant, PEP varied at fixed-saturating S3P, 100 mM Tris-HCl pH 7.8, 25°C
Description: continuous coupled spectrophotometric Pi release assay (MtPNP / MESG) on MsEPSPS

| Protein | Km | kcat | kcat/Km |
| --- | --- | --- | --- |
| B1 | 88 ± 11 µM | 0.553 ± 0.0185 s⁻¹ | 6280 M⁻¹ s⁻¹ |
| B2 | 3,081 ± 808 μM | 0.438 ± 0.0469 s⁻¹ | 142 M⁻¹ s⁻¹ |
| B3 | 3,676 ± 1,007 μM | 0.184 ± 0.033 s⁻¹ | 50.1 M⁻¹ s⁻¹ |
| B4 | 1,014 ± 975 μM | 0.107 ± 0.0608 s⁻¹ | 106 M⁻¹ s⁻¹ |
